Data on 47 molecules can be found in patent publication US20200297760A1, “COMPOSITIONS AND METHODS FOR REDUCING IMMUNE RESPONSES AGAINST CHIMERIC ANTIGEN RECEPTORS” (Juno Therapeutics, Inc., priority 2015, published 2020).

Holding throughout (conditions): remark: other sources report otherwise
The target of assay [1] is HLA-A*11:01 (recombinant MHC class I molecule) (human). Nature of the assay: REVEAL MHC-peptide binding assay, recombinant HLA-A*11:01.
Assay [2] concerns the target HLA-B*08:01 (recombinant MHC class I molecule) (human). The assay can be described thus: REVEAL MHC-peptide binding assay, recombinant HLA-B*08:01.
The next assay concerns the target HLA-A*02:01 (human). The assay can be described thus: REVEAL MHC-peptide binding assay, recombinant HLA.
The next assay concerns the target HLA-A*03:01 (human). Nature of the assay: REVEAL MHC-peptide binding assay, recombinant HLA.

B1: Synthetic peptide … (peptide)
peptide: AFIIFWVHR
B1: the In Vitro Score (score, % of positive control peptide) in assay [1] came to 34.9; in assay [2], 0.3.

B2: Synthetic peptide … (peptide)
peptide: WVARGRKKL
As to B2, the results for the In Vitro Score (score, % of positive control peptide) in assay [1] and in assay [2] were 13.8 and 32.4, respectively.

B3: Synthetic peptide … (peptide)
peptide: IIFWVSRGR
As for B3, the In Vitro Score (score, % of positive control peptide) in assay [1] stood at 68.9; in assay [2], 0.

B4: … (peptide)
peptide: VAFIIFWVK
On to B4, for which the In Vitro Score (% of positive control peptide) with HLA-A*02:01 (human) is 0.7; with HLA-A*03:01 (human), 1.5.

B5: Synthetic peptide … (peptide)
peptide: IFWVQRGAK
With B5, the figures for the In Vitro Score (score, % of positive control peptide) in assay [1] and in assay [2] were 61.3 and 0.2, respectively.

B6: … (peptide)
peptide: IFWVKRGHK
B6: the In Vitro Score (% of positive control peptide) in the assay with HLA-A*02:01 (human) was 2.2.

B7: Synthetic peptide … (peptide)
peptide: AFIIFWVAR
With B7, the In Vitro Score (score, % of positive control peptide) came out at 51.8 in assay [1] and 0.2 in assay [2].

B8: … (peptide)
peptide: IIFWVARGR
Consider B8, for which the In Vitro Score (% of positive control peptide) with HLA-A*03:01 (human) came to 18.6.

B9: Synthetic peptide … (peptide)
peptide: VAFIIFWVK
For B9, the In Vitro Score (score, % of positive control peptide) in assay [1] was 109; in assay [2], 0.3.

B10: Synthetic peptide … (peptide)
peptide: IIFWVARGR
With B10, the In Vitro Score (score, % of positive control peptide) turned out to be 70.6 in assay [1] and 0.3 in assay [2].

B11: Synthetic peptide … (peptide)
peptide: IFWVKRGSK
For B11, the results for the In Vitro Score (score, % of positive control peptide) in assay [1] and in assay [2] were 47.9 and 1.2, respectively.

B12: Synthetic peptide … (peptide)
peptide: IIFWVKRGS
As to B12, in assay [2], the In Vitro Score (score, % of positive control peptide) amounted to 0.4.

B13: Synthetic peptide … (peptide)
peptide: IFWVQRGRK
Consider B13, for which the In Vitro Score (score, % of positive control peptide) in assay [1] turned out to be 128; in assay [2], 0.

B14: Synthetic peptide … (peptide)
peptide: WVQRGNKKL
Turning to B14, the In Vitro Score (score, % of positive control peptide) in assay [1] was found to be 10.7; in assay [2], 32.

B15: Synthetic peptide … (peptide)
peptide: FIIFWVHRG
Consider B15, for which the results for the In Vitro Score (score, % of positive control peptide) in assay [1] and in assay [2] were 0.9 and 0.2, respectively.

B16: Synthetic peptide … (peptide)
peptide: IFWVKRGAK
For the molecule B16, the In Vitro Score (score, % of positive control peptide) in assay [1] came to 69.7; in assay [2], 2.2.

B17: Synthetic peptide … (peptide)
peptide: IFWVARGRK
For the molecule B17, the figures for the In Vitro Score (score, % of positive control peptide) in assay [1] and in assay [2] were 34.9 and 0, respectively.

B18: Synthetic peptide … (peptide)
peptide: IIFWVQRGR
In the case of B18, the values for the In Vitro Score (score, % of positive control peptide) in assay [1] and in assay [2] were 72.8 and 0.1, respectively.

B19: Synthetic peptide … (peptide)
peptide: WVKRGHKKL
Regarding B19, the In Vitro Score (score, % of positive control peptide) in assay [1] was 2.8; in assay [2] it was 47.6.

B20: … (peptide)
peptide: WVARGRKKL
As to B20, in the assay with HLA-A*03:01 (human), the In Vitro Score (% of positive control peptide) came to 1.3.

B21: Synthetic peptide … (peptide)
peptide: IIFWVKRGN
B21: the In Vitro Score (score, % of positive control peptide) in assay [1] amounted to 42.1; in assay [2] it was 0.9.

B22: Synthetic peptide … (peptide)
peptide: IIFWVKRGA
For B22, the figures for the In Vitro Score (score, % of positive control peptide) in assay [1] and in assay [2] were 22.6 and 0.9, respectively.

B23: Synthetic peptide … (peptide)
peptide: WVKRGSKKL
In the case of B23, the In Vitro Score (score, % of positive control peptide) in assay [1] amounted to 11.8; in assay [2] it was 56.1.

B24: … (peptide)
peptide: IFWVKRGNK
In the case of B24, the In Vitro Score (% of positive control peptide) with HLA-A*02:01 (human) came to 3.5.

B25: Synthetic peptide … (peptide)
peptide: IFWVKRGNK
Take B25: the In Vitro Score (score, % of positive control peptide) in assay [1] stood at 45.9; in assay [2], 0.1.

B26: Synthetic peptide … (peptide)
peptide: IIFWVQRGA
As to B26, the In Vitro Score (score, % of positive control peptide) is 56.5 in assay [1] and 0.2 in assay [2].

B27: Synthetic peptide … (peptide)
peptide: IFWVKRGLK
For B27, the figures for the In Vitro Score (score, % of positive control peptide) in assay [1] and in assay [2] were 61.1 and 58.3, respectively.

B28: … (peptide)
peptide: WVQRGRKKL
Turning to B28, the In Vitro Score (% of positive control peptide) with HLA-A*03:01 (human) came to 4.9.

B29: Synthetic peptide … (peptide)
peptide: IFWVHRGRK
Consider B29, for which the In Vitro Score (score, % of positive control peptide) in assay [1] came out at 36.6; in assay [2], 0.1.

B30: … (peptide)
peptide: IIFWVLRGR
As to B30, the In Vitro Score (% of positive control peptide) with HLA-A*03:01 (human) is 2.8.

B31: … (peptide)
peptide: IFWVKRGAK
With B31, the values for the In Vitro Score (% of positive control peptide) with HLA-A*02:01 (human) and with HLA-A*03:01 (human) were 13.8 and 22, respectively.

B32: Synthetic peptide … (peptide)
peptide: IIFWVLRGR
As for B32, the In Vitro Score (score, % of positive control peptide) was 35.2 in assay [1] and 0.4 in assay [2].

B33: Synthetic peptide … (peptide)
peptide: IIFWVKRGL
As to B33, the In Vitro Score (score, % of positive control peptide) in assay [1] came to 32.4; in assay [2] it was 1.7.

B34: Synthetic peptide … (peptide)
peptide: IFWVSRGRK
B34: the results for the In Vitro Score (score, % of positive control peptide) in assay [1] and in assay [2] were 39.2 and 0, respectively.

B35: Synthetic peptide … (peptide)
peptide: IFWVKRGHK
As to B35, the results for the In Vitro Score (score, % of positive control peptide) in assay [1] and in assay [2] were 30.9 and 3.2, respectively.

B36: Synthetic peptide … (peptide)
peptide: IIFWVKRGR
With B36, the In Vitro Score (score, % of positive control peptide) is 54.5 in assay [1] and 0 in assay [2].

B37: Synthetic peptide … (peptide)
peptide: WVKRGNKKL
Take B37: the In Vitro Score (score, % of positive control peptide) turned out to be 4.1 in assay [1] and 65.9 in assay [2].

B38: Synthetic peptide … (peptide)
peptide: IFWVQRGNK
As for B38, the results for the In Vitro Score (score, % of positive control peptide) in assay [1] and in assay [2] were 67.5 and 0.1, respectively.

B39: Synthetic peptide … (peptide)
peptide: AFIIFWVSR
With B39, the In Vitro Score (score, % of positive control peptide) in assay [1] was 54; in assay [2], 0.3.

B40: … (peptide)
peptide: WVKRGHKKL
For the molecule B40, the In Vitro Score (% of positive control peptide) was determined as 3.9 with HLA-A*02:01 (human) and 1.4 with HLA-A*03:01 (human).

B41: … (peptide)
peptide: IIFWVKRGA
With B41, the results for the In Vitro Score (% of positive control peptide) with HLA-A*02:01 (human) and with HLA-A*03:01 (human) were 85.9 and 42.9, respectively.

B42: Synthetic peptide … (peptide)
peptide: WVKRGAKKL
Take B42: the In Vitro Score (score, % of positive control peptide) turned out to be 4.6 in assay [1] and 34.1 in assay [2].

B43: Synthetic peptide … (peptide)
peptide: IIFWVHRGR
Regarding B43, the In Vitro Score (score, % of positive control peptide) came out at 77.5 in assay [1] and 0.2 in assay [2].

B44: Synthetic peptide … (peptide)
peptide: VAFIIFWVS
On to B44, for which the In Vitro Score (score, % of positive control peptide) was found to be 25.1 in assay [1] and 0.1 in assay [2].

B45: … (peptide)
peptide: WVKRGAKKL
Consider B45, for which the In Vitro Score (% of positive control peptide) came out at 4.7 with HLA-A*02:01 (human) and 4.1 in the assay with HLA-A*03:01 (human).

B46: Synthetic peptide … (peptide)
peptide: WVQRGRKKL
For the molecule B46, the In Vitro Score (score, % of positive control peptide) in assay [1] was 12.8; in assay [2] it was 45.1.

B47: … (peptide)
peptide: IIFWVKRGN
With B47, the In Vitro Score (% of positive control peptide) with HLA-A*03:01 (human) turned out to be 4.3.
